# Experimental data from publication doi:10.1101/2022.10.18.22281172.
# Assays:
# [1] = target: cynomolgus macaque FcRn (cynomolgus macaque) (UniProt Q8SPV9); experiment: SPR
# [2] = target: human neonatal Fc receptor (human) (UniProt P55899); experiment: SPR
# Chain of UniProt P55899 (P55899 24-365): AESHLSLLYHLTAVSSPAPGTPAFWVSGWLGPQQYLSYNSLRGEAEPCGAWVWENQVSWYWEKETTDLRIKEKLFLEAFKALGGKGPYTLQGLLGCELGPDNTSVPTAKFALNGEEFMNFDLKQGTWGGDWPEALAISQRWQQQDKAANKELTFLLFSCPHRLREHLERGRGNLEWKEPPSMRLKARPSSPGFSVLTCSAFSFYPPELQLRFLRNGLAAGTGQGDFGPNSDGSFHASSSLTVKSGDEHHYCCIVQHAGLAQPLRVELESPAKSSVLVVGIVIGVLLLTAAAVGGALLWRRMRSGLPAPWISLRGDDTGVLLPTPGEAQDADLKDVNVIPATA
# Chain of UniProt Q8SPV9 (Q8SPV9 24-365): as the sequence (P55899 24-365) above, with N39D, E44Q, G99S, S189G, S190N, L217M, S269T, V319S, L332S, V335I counted along it
substance,measurement,setting,value
adintrevimab (antibody),fold higher affinity relative to ADG2,[1],5 fold
same,fold higher affinity relative to ADG2,[2],6 fold
